Assay results as given in paper doi:10.1101/416032.

Molecular target: BG505.SOSIP.664-AviB (HIV-1 (clade A, BG505)) (UniProt Q2N0S6)
Experiment: BLI

Row | Substance | Kd
1 | BF520.1 matureVHnaïveVK mAb (antibody) | 8.95 nM
2 | BF520.1 naïveVHmatureVK mAb (antibody) | < 0.001 nM
